# Experimental data taken from the domain aggregation screens of Martell et al. (2025).
# Test: soluble fraction after stress (log2 fold change); higher = more stays soluble; pooled small domains, quantitative proteomics
# Settings: stress: 75 degC
# 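Also: 20 min heating vs room temperature control held 20 min.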
row,Sequence,soluble fraction (log2)
1,HMDTVEFPVQVNGKVRGKITVAADAGKDAIETAALADEKVLAFLDGATPKKVIVVPGKLVNLVVQPG,0.62
2,HMDTVSYMSDAVKAGAVTPSHDEEARARYLLYAGFGAILLFLRYEASEPGDIESAIREFMERYGPVTAELY,0.347
3,HMDTYKGFIFEVVDKYFSPTLNQKIGQAKNKQGIVLLQTKPSFTQDPKVLIEELKLIIDRDNLKA,-1.07
4,HMDVAAQITYAMRTMGVAPIPRNYELFYEAYIGSNPALTKELAALGSKATQEELDELGQQYF,-1.89
5,HMDVFPDESLKAWLIEMGFKLDQKKMNVFTVLRRMLLQTAPSVKEFRILEIVLQQSRRKLKELNDLKKS,-0.00949
6,HMDVKQSAAGVAGRIRFELNRTLTGQGHEKFTSASQAIGPRPAAELARRLFNSGSVVGVHVFANIVTVDLL,0.136
7,HMDVLKMKVEDLNIGSRTVNSLTAAKIKTVAGLIKKSKESLLELDGMGNKGVEEIILALKKLGLEL,-1.08
8,HMDVPTEEAILAYNNVPIELAAKFIGWSDITIRYALQEERAPFGMAAQNPKTGTWSYNISPGLLLKYKSGE,-2.23
9,HMDVPVEVFMERIVTALREGRKTTFSELMEGKPERGKVIGTFLALLQLSKGQQIQIHQEQRTGEISIEGGA,-0.328
10,HMDVQTVTVIENVNVRKSASENGQKLGLAYTGEKLELLMKQADGWTRVKYNGETAYVKSDYV,0.372
11,HMDVTSLDMLRFLMDQHGLRQQDLSELGSQGVVSEILAGKRELNLRHIGALARRFKVPPEVFLPA,-0.778
12,HMDVYKRQKLRNFIESLFEDAPKNKQTIELKEEMLQNLIDKYNDLVDSGKSSEAAYNIATAS,0.131
13,HMDWNPVRDITAHQVLAILQATHIRAPTVAAEAKRTLSSIFQFAVATLRADIDPVWPVRNALPKNKT,-0.262
14,HMDYARYGLSEKEAELIELIAQGMNNKEISAEIYLSEGTVRNYISELLEKLELRDRTQLAVYYYTHR,-2.72
15,HMDYDDLVPLDARGRLRLDGQDIILAFGRHRGRSIEEVHNHDKSYFDWLVSPAGGLEDEVIATLRERF,-0.613
16,HMDYENGTVKWFNTKKGYGFITRENGEDLFVHFRNIKGRGRRSLNDGEPVTFVVIEGDKGLQADQVSA,-0.34
17,HMDYGSLQRAIENQLEVRNYQKPKKFLTKIIQLMETIMVRHGVMVVGLTGTGKTTVIETLSRSMEQ,-0.591
18,HMDYIGIQAAKEAALKDADISSEQAVFTMAELDNKNNIFYYQIMFTENGTEYRYDIDALTGVIIEKNHFF,-2.4
19,HMDYKLDVNFPEMYLEQIPAEKRAALIQILEQDPRPSYQKDPVRIYGMSYAGMEIHFRVDKETLYVTEVER,-1.06
20,HMDYLSEFITDKVVRADGYSIRKGELSNEFKQWFITNVGTKNPKPKEIHDYMDRKFGKNKNGIWKNVKIKL,-0.492
21,HMDYQEVEFEKLGKEILTKILLDINKKATKKTLKILIDGFNYDSYRSFYIAIGKAQISSDSILELLQH,-0.994
22,HMDYSWNFFIGFSVVDKVAGNLGTIEEIDDKTINTLFLVKNDDEDLIIPATEDFVEKIDAKKRILYLNLPE,-2.51
23,HMDYYASVDQVWRELGLAGPARRALIDDGLFKLSDLRKTSLAAVKELHGMGPNAIRILTTEMKKADLSFR,-2.15
24,HMDYYDTLGVPRNASQSDIKKAYKKQSMQHHPDRTGGDDTKFKDVNEAYQVLSNSEKKQMYDQFGTA,0.07
25,HMDYYNILGVNKAATAQDIKRAYRKLAKEHHPDHGGDATRLQQVNEAYDTLKDPQRREQYDS,0.215
26,HMEAADAGTLAQRAAQYFNEKNYAAALDALERRAAMAPETTELRMMRGWSLLHLNRKDEARNAFATLG,-0.101
27,HMEAAIRNALSRVENPDETQRARIYRTAHDALIRNLENRGITDPEQVRPQVSRLKDLISVIEREYHG,-0.131
28,HMEAALTLRVDKAGSLRSLLSDEQYAKTSKIIVSGEINTLDIKTLQEMSGEKGSLQSIDLSQANIVAY,0.0407

row,Sequence,soluble fraction (log2)
1,HMEAFELTPREKQVLQLLVQGKAYKIIAADLDITYDTVRAHIKKIYEKLHVGSMTEAVAKAIQHKL,-2.08
2,HMEAKKVIAVHIIGEINKPGIVELEEGARVIDAIKKAGGTTEKADLAQINLAYILKDGQKIYIPNTEDN,0.254
3,HMEALASESVKDKIRKIIDSEDPSRPMSDQRIKEMLKAANIDIARRTVTKYREAMNILSSTKRRQV,-0.432
4,HMEALDPLTAREQEVLEMILSGKSNREIAAELHITENTVKTHAQSIYSKYDVRGRAKLISLLLKGEA,-0.406
5,HMEALQKVSINYYDEGAGKQIAEVPLEVGAGDTEIALAVINKYMPAEYNLVSTDYQIRGGYVYVSVTPA,-0.49
6,HMEAPPHEALSNREFQVLQLLSQGRSVTQIAHQLTLSANTISTYRARIFDKLGLHNPADLYAYAARHGLM,-2.41
7,HMEAPWQEIKRQVMDGLDMSREFTDEELRERIALAVRSYSKEKLLSLKVRESYEEQIFNSFR,-1.05
8,HMEAQFIDINDVRIGTYVYVDLGWIKHPFALNSFKITSRDQIDTLIKLGVKRIRWSPEKSDS,-3.18
9,HMEARNDWAQQSRADAEFGGEKLDENLAVAKKAVEALASPELKTLLEQSGLGNHPEIIRLFYRAGRSLS,0.0741
10,HMEATILTATPEAAGQRLDAFLAETLPELTRSAAQRLIAEGQVAVDGKIPTKSLKLAGGETVSVRLPEPE,0.734
11,HMEAVIGGIYRHYKGNNYKLLAVATHSETLEKMAVYQALYGEMGIWVRPLAMFMETIEKDGQSLKRFE,-2.67
12,HMEDAWMKKELWDAIATLPKKQRLVMTMRLTNNHSYKEIAAILGISENSAKVSYHHAVERLKEKFK,-2.23
13,HMEDDPIYEQVMIFLLDKQITSAPELERRFKITHQRAIELLAQMEKTGIVSTMGHAGKRDVLT,-1.85
14,HMEDEFNQIASQKNVPSFLGKGKKEVINIAKKNKIKINLSGNGYVKRQIPAPGEVISHLDEVTIFLEPG,-0.0115
15,HMEDEVYFVPSPASRFNPWIAALASRRVPYRVEYDGAERRIAVPAGYAEKAGEELAAYERINHAWPR,-0.371
16,HMEDFDLSDTERKIIAQIGHGYSNKEIAQKLGFSEGTIRNYLSVILDKLDLRDRTQLAIWYLSR,-0.592
17,HMEDIAAIAQRIQGLRDIVGISVEEMAKALDISEQEYREYEKGETDFSFSFLYTVANVLGINITDLI,-1.29
18,HMEDIEEVIVEIDTVLRTHFDRGRTEVLFAEIETAGGRPFMTYLALLFMAHRGSVRLQQDDLFGDLWVKDP,0.198
19,HMEDISLYKILRAHSIDNLKLSQWIIDSLKTKFSTIGELQDAKIDDIRMYRIQDVRIEKIKNAVTEYMA,-1.08
20,HMEDISQHAVKKLVQEMVMAEDPRDPLSDQQIAENLSRLGLKVARRTVAKYRAMLGIQPSNRRRK,-1.21
21,HMEDIVDLVVEPEAAGRRLDAWLASRIERLSRSRIKALIESGHVAIGGATIVEAKKPVNSGDVVQLSVPEG,-0.263
22,HMEDKQRRMGELVALLNRAAYAYYTKDEPIMADVQYDRLYDELLSLEKETGVQMADSPTHRV,0.0301
23,HMEDLMEERKEHLLSVMKDPAYVPMKQKELAMLLNVPKGLREELNQVLDALVAEGSVVMSKRGKYTIPQ,-0.0948
24,HMEDNLVTYPNPTSDYIYVSKKVDLTVVNMLGDILIQKQNINVLDVTELTPGMYTIVIRYNNVTTNKRIIK,-0.017
25,HMEDPFATLGVHREASLDEIKRAYRRLAMFWHPDRNPEAVAGTEFKRVHAAYELLLDPQRLAEWQQAQAT,-0.19
26,HMEDPLAAQWKQGRKLFHDDYGYGIISKAFTAGDELVIMVQFENGGEKRFLPKYQAHNLLLVEQ,-1.33
27,HMEDQVITQFNMRLIRAVMPQGAPMIVVYEDPKDYPGLFVARLFDGRKSTHLIALADTLEDI,-0.31
